The values below come from patent US20240325557A1, “TREATMENT OF CANCER” (INNATE PHARMA, priority 2020, published 2024).

Entries after “also recorded” stand apart in the source; their conditions may differ.

Experiment [1] concerns the target T1, Hu-Nectin4 IgC1C2-V5 (modified Nectin-4 lacking the Ig-like V domain, C1C2 construct) (Homo sapiens, UniProt Q96NY8).
T1 construct: expressed in transfected cells; host or cells: CHO
T1 sequence (Q96NY8 148-510): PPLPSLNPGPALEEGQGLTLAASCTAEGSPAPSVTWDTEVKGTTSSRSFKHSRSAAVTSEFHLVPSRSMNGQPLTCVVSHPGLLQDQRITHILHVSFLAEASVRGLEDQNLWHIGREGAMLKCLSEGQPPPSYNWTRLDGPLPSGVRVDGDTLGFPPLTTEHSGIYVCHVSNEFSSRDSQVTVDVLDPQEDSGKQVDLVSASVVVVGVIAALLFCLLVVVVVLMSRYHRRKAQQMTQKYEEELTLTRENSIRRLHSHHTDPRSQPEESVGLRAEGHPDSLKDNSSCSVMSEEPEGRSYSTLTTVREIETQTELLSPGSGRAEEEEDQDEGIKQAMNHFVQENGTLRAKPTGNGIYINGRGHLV
In words: Flow cytometry binding to cells expressing the Nectin-4 C1C2 construct. Here is the method: (§1) The characterization of the binding of the antibodies on Nectin-4 domains was performed by flow cytometry using cells made to express the wild-type human Nectin-4 protein and cells made to express a modified Nectin-4 having the Ig-like C2 type 1 and the Ig-like C2 type 2 domains and lacking the Ig-like V domain (the C1C2 construct). The latter protein additionally bears a V5 tag for flow cytometry cell sorting, and cells were used as Nectin4-C1C2-V5 sorted cells.
Wild-type Nectin-4 (the CI.3C8 cell line), a C2 construct (containing the Ig-like C2 type 2 domain and lacking both the V and the C1 domains) and the C1C2 construct allow the determination of whether test antibodies bind to the V or different C domains. Briefly, nucleic acid sequences encoding different human Nectin-4 domains were amplified by PCR. The PCR products were inserted into an expression vector at appropriate restriction sites. A leader peptide, and for C1C2 and C2 an N-terminal V5 tag having the amino acid sequence […] (SEQ ID NO: 41), were added, and expression at the surface of cells was confirmed by flow cytometry. The amino acid sequences of the resulting different human Nectin-4 domain fragment-containing proteins are shown below (V5 tag underlined). The vectors were then transfected into the CHO cell line to obtain stable clones expressing the different Nectin-4 domain proteins at the cell surface.

The target in the next experiment is T2, wild-type human Nectin-4 (Homo sapiens, UniProt Q96NY8).
T2 construct: expressed in transfected cells; host or cells: CHO (huNectin4 Cl.3C8)
T2 sequence (Q96NY8 32-510): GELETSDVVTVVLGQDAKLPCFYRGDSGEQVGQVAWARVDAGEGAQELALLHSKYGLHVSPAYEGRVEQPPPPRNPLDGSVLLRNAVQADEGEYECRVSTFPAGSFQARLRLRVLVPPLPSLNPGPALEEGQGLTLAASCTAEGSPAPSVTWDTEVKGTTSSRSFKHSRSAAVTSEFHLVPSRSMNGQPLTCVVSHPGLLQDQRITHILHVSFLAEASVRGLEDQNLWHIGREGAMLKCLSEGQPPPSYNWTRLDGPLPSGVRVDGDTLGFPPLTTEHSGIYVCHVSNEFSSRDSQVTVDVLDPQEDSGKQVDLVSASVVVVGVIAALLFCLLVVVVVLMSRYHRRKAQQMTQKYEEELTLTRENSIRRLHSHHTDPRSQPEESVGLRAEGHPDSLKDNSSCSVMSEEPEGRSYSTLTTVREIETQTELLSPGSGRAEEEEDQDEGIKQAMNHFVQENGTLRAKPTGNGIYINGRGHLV
In words: Flow cytometry binding to wild-type Nectin-4 expressing CHO cells. Here is the method:
plates of hybridoma supernatants were tested for binding on the wild-type human Nectin-4 expressing CHO cell line by flow cytometry. Briefly, Nectin-4 expressing cells were used at 0.2×10^6 cells by well in a buffer of PBS, BSA 0.5%, EDTA 5 mM. The first antibody was incubated with cells for 1h at +5±3° C. in 50 μL of supernatant. […] Acquisition HTFC flow cytometer (Intellicyt), with data analysis on ForeCyt™ software.
as §1
Wild-type Nectin-4 (the CI.3C8 cell line), a C2 construct (containing the Ig-like C2 type 2 domain and lacking both the V and the C1 domains) and the C1C2 construct allow the determination of whether test antibodies bind to the V or different C domains. Briefly, nucleic acid sequences encoding different human Nectin-4 domains were amplified by PCR. The PCR products were inserted into an expression vector at appropriate restriction sites. […] The amino acid sequences of the resulting different human Nectin-4 domain fragment-containing proteins are shown below (V5 tag underlined). The vectors were then transfected into the CHO cell line to obtain stable clones expressing the different Nectin-4 domain proteins at the cell surface.

The nature of experiment [2]: Binding to HEK-293T cells, negative control of the point mutant test. Also noted: species or system human. Here is the method: Nectin-4 mutants were generated by PCR. The sequences amplified were run on agarose gel and purified using the Macherey Nagel PCR Clean-Up Gel Extraction kit. The purified PCR products generated for each mutant were then ligated into an expression vector, with the ClonTech InFusion system. The vectors containing the mutated sequences were prepared as Miniprep and sequenced. After sequencing, the vectors containing the mutated sequences were prepared as Midiprep using the Promega PureYield™ Plasmid Midiprep System. HEK293T cells were grown in DMEM medium (Invitrogen), transfected with vectors using Invitrogen's Lipofectamine 2000 and incubated at 37° C. in a CO2 incubator for 48 hours prior to testing for transgene expression. The targeted amino acid mutations are shown in Table 2 below, listing the residue present in wild-type Nectin-4/position of residue/residue present in mutant Nectin-4, with position reference being to the Nectin-4 protein with leader peptide shown in SEQ ID NO: 1.

B1: N41 (antibody, V domains shown)
VH: QVQLKQSGPGLVQPSQSLSITCTVSGFSLTNYGVHWVRQSPGKGLEWLGVIWSGGSTDYNAAFISRLSISKDTSKSQVFFKMNSLQADDTAIYYCARELIHAMDNWGQGTSVTVSS
VL: DIQMTQSPASLSVSVGETVTITCRASENIYSNLAWYQQKQGNSPQLLVFAATNLADGVPSRFSGSGSGTQYSLKINSLQSEDFGTYYCQHFWGTPTFGGGTKLEIK
For the molecule B1, the “binding to the C1C2 construct” value in experiment [1] is listed as “lost all binding to the C1C2 construct”. Moreover, the “binding to whole (wild-type) human Nectin-4 protein” value (from here on “binding to whole”) with wild-type human Nectin-4 was “bound to the whole Nectin-4 protein”. For the same molecule, the “association, EXPI medium (negative control)” value (shortened to “association, EXPI medium”) in experiment [2] is “−”.

B2: 5E7 (antibody, V domains shown)
VH: QVQLQQPGAELVKPGASVKLSCKASGYIFTSYWMHWVKQRPGQGLEWIGEIDPSDSYTNYNQKFKGKATLTLDKSSSTTYMQLSSLTSEDSAVYYCVRGYGNYGDYWGQGTTLTVSS
VL: DVVMTQAAFSNPVTLGTSASISCRSSKSLLHSNGITYLYWYLQKPGQSPQLLIYQMSNLASGVPDRFSSSGSGTDFTLRISRVEAEDVGVYYCAQNLELPWTFGGGTKLEIK
In the case of B2, the “binding to the C1C2 construct” value in experiment [1] is given as “partial loss of binding to the C1C2 construct; also recorded: retain binding to the C1C2 construct”. In the experiment with wild-type human Nectin-4, the “binding to whole” value is “lower plateau”. For the same molecule, the “association, EXPI medium” value in experiment [2] was “−”.

B3: 10B12: anti-Nectin-4 antibody, VH SEQ ID NO: 24, VL SEQ ID NO: 25, binds junction of domain C1 and V (antibody, listed as Mus musculus, V domains shown)
VH: QVQLQQPGAELVKPGASVKLSCKASGYTFTSYWMHWVKQRPGQGLEWIGEIDPSDSYTNYNQKFKGKATLTVDKSSSTAYMQLSSLTSEDSAVYYCVRGYGNYGDYWGQGTTLTVSS
VL: DIVMTQAAFSNPVTLGTSASISCRSSKSLLHSNGITYLYWYLQKPGQSPQLLIYQMSNLASGVPDRFSSSGSGTDFTLRISRVEAEDVGVYYCAQNLELPWTFGGGTKLEIK
On to B3, for which, in experiment [1], the “binding to the C1C2 construct” value is given as “partial loss of binding to the C1C2 construct; also recorded: retain binding to the C1C2 construct”. Also, the “binding to whole” value with wild-type human Nectin-4 is reported as “lower plateau”. For the same molecule, the “association, EXPI medium” value in experiment [2] was “−”.
